The text below walks through data of patent US20090285843A1, “EPITOPE SEQUENCES” (Mannkind Corporation, priority 2002, published 2009).

Assay [1] deals with peptide pulsed T2 cells. The assay can be described thus: In vitro immunization of HLA-A2+ blood (CTL induction cultures), chromium release assay. Type of assay: cell-based, human. The procedure:
(§1) , tyrosinase207-215 (SEQ ID NO. 8) was used in an in vitro immunization of HLA-A2^+ blood to generate CTL (see CTL Induction Cultures below).
(§2) PBMCs from normal donors were purified by centrifugation in Ficoll-Hypaque from buffy coats. All cultures were carried out using the autologous plasma (AP) to avoid exposure to potential xenogeneic pathogens and recognition of FBS peptides. To favor the in vitro generation of peptide-specific CTL, we employed autologous dendritic cells (DC) as APCs. DC were generated and CTL were induced with DC and peptide from PBMCs as described (Keogh et al., 2001). Briefly, monocyte-enriched cell fractions were cultured for 5 days with GM-CSF and IL-4 and were cultured for 2 additional days in culture media with 2 μg/ml CD40 ligand to induce maturation. 2×10^6 CD8+-enriched T lymphocytes/well and 2×10^5 peptide-pulsed DC/well were co-cultured in 24-well plates in 2 ml RPMI supplemented with 10% AP, 10 ng/ml IL-7 and 20 IU/ml IL-2. Cultures were restimulated on days 7 and 14 with autologous irradiated peptide-pulsed DC.

The next assay relates to HTB64. The assay is described as follows: In vitro induced CTL, chromium release assay on tumor cell line. The class given is cell-based, human. The following applies: HTB64, HLA-A2+, tyrosinase+. The procedure: as §1, §2
In a further assay the test system is 624.38. Described as above. The class given is cell-based, human. The following applies: 624.38, HLA-A2+, tyrosinase+. The procedure: as §1, §2
The next assay deals with HLA-A2.1 (Homo sapiens, UniProt P04439, D140Y/D185E/D98H/E176V/E277Q/G131W/G231S/I119V/I121R/I166T/I218V/L300P/L318F/N151K/N90K/P208A/P217A/Q86G/Q94H/R138H/R169H/T345S). The assay is described as follows: HLA-A0201 binding assay (T2 cells, flow cytometry). The following applies: for binding to HLA-A2.1: T2 cells, flow cytometry, compared with control peptides.
The target of assay [2] is T1, proteasome isolated from human red blood cells (Homo sapiens, UniProt P28072+P28074+Q99436).
T1 construct: from tissue; host or cells: human red blood cells
The assay can be described thus: N-terminal pool sequence analysis of proteasomal digest. The conditions noted are these: in vitro proteasome digestion and N-terminal pool sequencing. Type of assay: biochemical. The text has this: One aliquot at one hour of the proteasomal digestion (see Example 3 part 3 above) was subjected to N-terminal amino acid sequence analysis by an ABI 473A Protein Sequencer (Applied Biosystems, Foster City, Calif.). Determination of the sites and efficiencies of cleavage was based on consideration of the sequence cycle, the repetitive yield of the protein sequencer, and the relative yields of amino acids unique in the analyzed sequence. That is if the unique (in the analyzed sequence) residue X appears only in the nth cycle a cleavage site exists n−1 residues before it in the N-terminal direction.

Assay [3] concerns peptide pulsed T2 cells. The assay is described as follows: In vivo immunization of mice, in vitro stimulation, chromium-release assay measuring CTL activity. More on the design: species or system HHD1 transgenic A*0201 mice. The conditions noted are these: 100 nmol peptide s.c. with HTL epitope peptide in IFA; 51Cr-release. As for the experimental part: Using spleens from 2 naive mice for each group of immunized mice, un-immunized mice were sacrificed and the carcasses were placed in alcohol. Using sterile instruments, the top dermal layer of skin on the mouse's left side (lower mid-section) was cut through, exposing the peritoneum. The peritoneum was saturated with alcohol, and the spleen was aseptically extracted. The spleen was placed in a petri dish with serum-free media. Splenocytes were isolated by using sterile plungers from 3 ml syringes to mash the spleens. Cells were collected in a 50 ml conical tubes in serum-free media, rinsing dish well. Cells were centrifuged ([…], 7 min) and washed one time with RPMI. Fresh spleen cells were resuspended to a concentration of 1×10^6 cells per ml in RPMI-10% FCS (fetal calf serum). 25 µg/ml lipopolysaccharide and 7 μg/ml Dextran Sulfate were added. Cell were incubated for 3 days in T-75 flasks at 37° C., with 5% CO2. Splenic blasts were collected in 50 ml tubes pelleted ([…], 7 min) and resuspended to 3×10^7/ml in RPMI. The blasts were pulsed with the priming peptide at 50 μg/ml, RT 4 hr. mitomycin C-treated at 25 μg/ml, 37° C., 20 min and washed three times with DMEM. […]
During incubation they were gently shaken every 15 minutes. […] Supernatants were harvested and counted using a gamma counter.

Assay [4] concerns tumor cells expressing other SSX proteins. The assay can be described thus: Cross-reactivity of CTL with other SSX proteins. Type of assay: cell-based. The text has this:
The surrounding regions have also been generally well conserved. Thus the housekeeping proteasome can cleave following V49 in all five sequences.

Another assay relates to metastatic melanoma. The following applies: first 15 patients; intradermal peptide with IL-12; cited from earlier work.
A further assay relates to HLA-A1+ CD8+ T cells. The assay is described as follows: gamma-IFN-based ELISPOT assay. Type of assay: cell-based, human. The conditions noted are these: blocking of gamma IFN production by anti-HLA-A1 monoclonal antibody. The procedure:
The wells of a nitrocellulose-backed microtiter plate were coated with capture antibody by incubating overnight at 4° C. using 50 μl (microliter)/well of 4 μg/ml murine anti-human γ (gamma)-IFN monoclonal antibody in coating buffer (35 mM sodium bicarbonate, 15 mM sodium carbonate, pH 9.5). Unbound antibody was removed by washing 4 times 5 min. with PBS. Unbound sites on the membrane then were blocked by adding 200 μl (microliter)/well of RPMI medium with 10% serum and incubating 1 hr. at room temperature. Antigen stimulated CD8^+ T cells, in 1:3 serial dilutions, were seeded into the wells of the microtiter plate using 100 μl (microliter)/well, starting at 2×10^5 cells/well. (Prior antigen stimulation was essentially as described in Scheibenbogen, C. et al. Int. J. […] PSMA462-471 (SEQ ID NO. 62) was added to a final concentration of 10 μg/ml and IL-2 to 100 U/ml and the cells cultured at 37° C. in a 5% CO2, water-saturated atmosphere for 40 hrs. Following this incubation the plates were washed with 6 times 200 μl (microliter)/well of PBS containing 0.05% Tween-20 (PBS-Tween). […] The plate was air dried and the spots counted using a stereomicroscope. […] No reactivity is detected from cultures without peptide (data not shown).

For “FLPWHRLFL (listed as Homo sapiens) [tyrosinase207-215]”, in the assay with peptide pulsed T2 cells [1] (compared with the other tyrosinase length variant), the immunogenicity entry is on record as “superior immunogenicity”. Moreover, the “recognition of tyrosinase207-216 targets by CTL induced by the peptide” value with peptide pulsed T2 cells [1] (peptide pulsed T2 cells, standard chromium release assay) is on record as “equally well”. Besides, the “recognition of tumor cell line by CTL induced by the peptide” value in the assay with HTB64 and with 624.38 was “recognize” in each case. Also, the “binding to HLA-A2.1” value with HLA-A2.1 is “more significant binding”.
Turning to “FLPWHRLFLL (listed as Homo sapiens) [Tyrosinase207-216]”, in [2], the “relative production by in vitro proteasome digestion” value is “produced more commonly”.
With “GLPSIPVHPI (listed as Homo sapiens) [PSMA288-297]”, in the assay with HLA-A2.1, the “binding to HLA-A2.1” value is listed as “significant binding at even lower concentrations than the positive control peptides”.
On the same count and under the same terms, the result for “GMPEGDLVYV (listed as Homo sapiens) [PSMA168-177]” reads “significant binding at even lower concentrations than the positive control peptides”.
For the substance KASEKIFYV [SSX-241-49], the “specific lysis of peptide pulsed targets by CTL from immunized mice” value with peptide pulsed T2 cells [3] was “specific lysis”. For the same substance, the “cross-reactivity of CTL generated by immunization” value in [4] is listed as “cross-react with tumor cells expressing other SSX proteins”. Besides, the “binding to HLA-A2.1” value in the assay with HLA-A2.1 is on record as “bind HLA-A2.1 to a similar extent as the known A2.1 binder FLPSDYFPSV”.
As for “MART-126-35 peptide: MART-1 26-35 peptide given intradermally with IL-12 to metastatic melanoma patients (Cebon et al.)”, the clinical response in the assay with metastatic melanoma was 1 complete remission, 1 partial remission, and 1 mixed response.
Turning to MMNDQLMFL [PSMA663-671], the “binding to HLA-A2.1” value with HLA-A2.1 is recorded as “significant binding at even lower concentrations than the positive control peptide”.
For “RMMNDQLMFL (listed as Homo sapiens) [PSMA662-671]”, the “binding to HLA-A2.1” value with HLA-A2.1 was “significant binding at even lower concentrations than the positive control peptide”. In the assay with HLA-A2.1 (not run in parallel, comparison to the controls), the “binding activity compared between the two PSMA peptides” value was “superior binding activity”.
As for RVDCTPLMY [PSMA463-471], the “HLA restriction of response” value with HLA-A1+ CD8+ T cells is “HLA-A1-restricted response”.
Consider “TLRVDCTPL (listed as Homo sapiens) [PSMA461-469]”, for which the “binding to HLA-A2.1” value with HLA-A2.1 is given as “binds nearly as well”.
On the same count and under the same terms, the value for “YTLRVDCTPL (listed as Homo sapiens) [PSMA460-469]” was “bind HLA-A2.1 to a similar extent as the known A2.1 binder FLPSDYFPSV”.
